# Publication PMC6047474
# Where two headings read alike, the source gives them in different places.
# B1: α-crystallin (complex)
# chain 1: MDIAIQHPWFKRALGPFYPSRLFDQFFGEGLFEYDLLPFLSSTISPYYRQSLFRTVLDSGVSEVRSDRDKFVIFLDVKHFSPEDLTVKVQEDFVEIHGKHNERQDDHGYISREFHRRYRLPSNVDQSALSCSLSADGMLTFSGPKVPSGVDAGHSERAIPVSREEKPSSAPTS
# chain 2: MDIAIHHPWIRRPFFPFHSPSRLFDQFFGEHLLESDLFPASTSLSPFYFRPPSFLRAPSWIDTGLSEMRLEKDRFSVNLDVKHFSPEELKVKVLGDVIEVHGKHEERQDEHGFISREFHRKYRIPADVDPLTITSSLSSDGVLTVNGPRRQASGPERTIPITREEKPAVTAAPKK
# How the values were obtained:
# [1] = target: Histones (bovine), Sigma-Aldrich H9250 (bovine); experiment: ITC
# [2] = target: Histones (bovine), Sigma-Aldrich H9250 (bovine); experiment: ITC; remark: listed apart in the source
Molecule,Ka [1] [M⁻¹],Kd [1] [nM],dH [1] [kcal/mol],Ka [2] [M⁻¹],Kd [2] [nM],dH [2] [kcal/mol]
γ-crystallin,7.85e+06,127,-13.4,9.79e+06,102,-15.8
βL-crystallin (complex),1.15e+07,86.4,-10.7,1.35e+06,743,-8.86
B1,–,400,-6.29,3.42e+07,29.3,–
